Assay results reported in PMC8410842, “Heimdallarchaea encodes profilin with eukaryotic-like actin regulation and polyproline binding” (Communications Biology, 2021).
Like-named read-outs stand apart in the source and are kept apart here.

Legend:
[1] = target: T1, ΔN-heimProfilin (Candidatus Heimdallarchaeota archaeon LC_3, UniProt A0A1Q9NL85); experiment: NMR 1H-15N TROSY-HSQC titration; format: binding; conditions: 25 mM Tris-HCl pH 7.5, 50 mM NaCl, 5% glycerol, 298 K; acyl chains not given
T1 construct: gene HeimC3_27980; residues 1-23 (N-terminal extension) deleted; E. coli Rosetta DE3; His6-SUMO tag cleaved with Ulp1; 15N labelled; PDB 6YRR is the full-length parent

[2] = target: ΔN-heimProfilin (Candidatus Heimdallarchaeota archaeon LC_3); experiment: ITC; profilin in the cell (approx. 0.1-0.5 mM), 20 injections of 1.0-14 mM polyproline (VASP); 50 mM Na3PO4 pH 7.5, 50 mM NaCl; 25 °C; triplicates
[3] = target: Heimdallarchaeota LC3 profilin (heimProfilin) (Candidatus Heimdallarchaeota archaeon LC_3); experiment: as above
[4] = target: both the full-length protein and ΔN-thorProfilin; experiment: NMR titration; 1H-15N TROSY-HSQC; fixed thorProfilin or ΔN-thorProfilin (200 μM), increasing polyproline … (0, 5, 7 mM in the legend); 25 mM Tris-HCl pH 6.8, 150 mM NaCl; KD from fits of chemical shifts of a few residues
[5] = target: both the full-length protein and ΔN-thorProfilin; experiment: as above; remark: listed apart in the source

PIP2
affinity [1]: ~ 0.5–1 ± 0.3 mM

GAGGGPPPAPPLPAAQ [polyproline motif of VASP (…)]
Kd [2]: 300 µM
Kd [3]: 3300 µM

PPPAPPLPAAQ [polyproline from VASP (…)]
Kd [4]: 200 to 500 µM
Kd [5]: 250 to 500 µM
